Measurements: patent US20210380977, “MYOCARDIAL ENHANCER RNA AND METHODS OF USE” (THE TRUSTEES OF INDIANA UNIVERSITY, published 2021)

T1: CTCF (UniProt P49711 P49711:1-727)
T1 sequence: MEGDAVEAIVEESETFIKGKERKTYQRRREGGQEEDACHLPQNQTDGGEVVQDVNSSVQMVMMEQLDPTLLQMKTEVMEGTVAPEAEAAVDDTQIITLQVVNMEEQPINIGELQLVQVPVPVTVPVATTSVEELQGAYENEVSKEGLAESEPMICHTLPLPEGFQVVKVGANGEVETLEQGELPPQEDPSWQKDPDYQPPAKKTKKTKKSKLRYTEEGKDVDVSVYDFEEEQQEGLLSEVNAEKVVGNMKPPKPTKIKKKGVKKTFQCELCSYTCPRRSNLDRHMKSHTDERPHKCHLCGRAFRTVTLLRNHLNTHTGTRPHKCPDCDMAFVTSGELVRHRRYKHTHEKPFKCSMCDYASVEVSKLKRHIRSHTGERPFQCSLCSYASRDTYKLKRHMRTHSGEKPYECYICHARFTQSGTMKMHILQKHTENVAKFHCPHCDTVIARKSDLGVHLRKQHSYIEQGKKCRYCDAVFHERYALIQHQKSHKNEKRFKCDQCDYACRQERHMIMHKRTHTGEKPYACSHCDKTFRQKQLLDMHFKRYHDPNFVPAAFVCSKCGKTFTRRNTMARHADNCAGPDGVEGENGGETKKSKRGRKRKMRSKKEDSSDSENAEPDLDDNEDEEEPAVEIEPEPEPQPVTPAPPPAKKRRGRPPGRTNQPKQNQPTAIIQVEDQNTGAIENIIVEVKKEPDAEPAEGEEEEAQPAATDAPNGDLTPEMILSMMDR

B1: eDNA CTCF site dsDNA probe (dsDNA)
DNA 1: GGTCAGCCACACAACAGAGGGGGTGGCACAGCTCTTGGGA
DNA 2: TCCCAAGAGCTGTGCCACCCCCTCTGTTGTGTGGCTGACC
B2: mutant CTCF site dsDNA probe (dsDNA)
DNA 1: GGTCAGCCACACAACAGAAAAAATGGCACAGCTCTTGGGA
DNA 2: TCCCAAGAGCTGTGCCATTTTTTCTGTTGTGTGGCTGACC

What was measured:
CTCF [1] = biological target: T1, CTCF; test: EMSA; 200 ng CTCF, 10 mM HEPES pH 7.3, 10 mM NaCl, 1 mM MgCl2, 5 ug tRNA, RT; conditions: tags: Abnova H00010664-P01; label: 5' biotin on the reverse complementary strand
Protocol: (§1) All these biotin-labelled probes were incubated with 200 ng CTCF recombinant proteins (H00010664-P01, Abnova) in 20 μl 1× binding buffer (10 mM HEPES-KOH, pH 7.3, 10 mM NaCl, 1 mM MgCl₂, 1 mM DTT) with 5 μg tRNA carrier at room temperature for 30 min. The reactions were then loaded onto 6% Novex TBE gels (EC6265BOX, Thermo Fisher Scientific) and transferred to Bright Star-Plus positive charged membrane (AM10110, Thermo Fisher Scientific). Biotin-labeled probes were detected by Chemiluminescent Nucleic Acid Detection Module (89880, Thermo Fisher Scientific) using Odyssey Imaging System (LI-COR).
(§2) We next asked whether Brg1 or its associated factor could bind to Uhrt-eDNA hybrid. We first investigated the role in eDNA looping of CCCTC-binding factor (CTCF), a regulator protein essential for chromatin looping and three-dimensional structure formation. CTCF contains 11 highly conserved zinc finger domains, capable of binding to specific double-stranded DNA sequence to cause chromatin looping. We found a CTCF consensus binding motif (AGGGGGTGG; SEQ ID NO: 43) on eDNA near the conserved MEF2A and GATA4 sites. ChIP analysis of heart tissues verified CTCF was enriched on eDNA region in E13.5 hearts, whereas its occupancy on eDNA dropped by 42% in normal adult hearts, but was increased by 81% and restored to fetal levels by TAC, while CTCF protein levels remained unchanged. […]

CTCF [2] = biological target: T1, CTCF; test: EMSA; mutation disrupted CTCF binding; conditions: tags: Abnova H00010664-P01; label: 5' biotin
Protocol: as §1, §2

Binder | binding result (CTCF [1]) | binding result (CTCF [2])
B1 | binds | –
B2 | – | no binding
